Measurements from article PMC4429956.

What was measured:
Experiment in all cases: SPR
PI5P = settings: parent: est. 460; read off a plot
PI3P = settings: parent: est. 370; read off a plot
PI(4,5)P2 = settings: parent: est. 240; read off a plot
[1] = molecular target: histone H3 peptide trimethylated at lysine 4; settings: parent: est. 490; read off a plot

response (PI5P)	response (PI3P)	response (PI(4,5)P2)	response [1]	Substance
400 RU	270 RU	120 RU		GST-TAF3 PHD finger, wild type D890; W891
			570 RU	GST-TAF3 PHD finger, wild type K922; K923; K925; K926; R927; K928
